Molecular target: T1, GST-ELAV (UniProt P16914 76-483)
T1 sequence: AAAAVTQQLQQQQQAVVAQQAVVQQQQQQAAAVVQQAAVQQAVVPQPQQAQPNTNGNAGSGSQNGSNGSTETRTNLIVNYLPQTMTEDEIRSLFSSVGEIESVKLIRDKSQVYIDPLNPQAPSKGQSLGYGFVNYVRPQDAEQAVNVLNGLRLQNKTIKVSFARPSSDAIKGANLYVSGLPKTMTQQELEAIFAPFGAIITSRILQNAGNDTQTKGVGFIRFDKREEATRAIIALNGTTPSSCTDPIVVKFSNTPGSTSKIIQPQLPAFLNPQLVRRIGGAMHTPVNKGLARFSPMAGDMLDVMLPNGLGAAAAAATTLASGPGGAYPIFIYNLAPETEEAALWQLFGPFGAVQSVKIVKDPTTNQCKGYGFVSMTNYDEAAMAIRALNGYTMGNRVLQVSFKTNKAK
Assay: competition

Binder: AUUUUUAUUUGUUAUUUUUU (ssRNA) [SSE 20mer]
- binding result: binds

— publication PMC1283526
